Measurements from patent CN114685670A (SHANGHAI LYOFIE MEDICAL SCIENCE AND TECH LIMITED COMPANY, dated 2022).
Values belong to the binder of their own block, whether it stands above or below them.

Key:
human CLDN18.2 [1] = molecular target: T1, human CLDN18.2 (human, UniProt P56856-2 1-261); experiment: flow cytometry on 18.2-K562 cells, 8-point antibody dilution, Anti-Human IgG FITC detection
T1 construct: whole, on cells; also called hCLDN18.2; Claudin 18.2
T1 sequence (looked up): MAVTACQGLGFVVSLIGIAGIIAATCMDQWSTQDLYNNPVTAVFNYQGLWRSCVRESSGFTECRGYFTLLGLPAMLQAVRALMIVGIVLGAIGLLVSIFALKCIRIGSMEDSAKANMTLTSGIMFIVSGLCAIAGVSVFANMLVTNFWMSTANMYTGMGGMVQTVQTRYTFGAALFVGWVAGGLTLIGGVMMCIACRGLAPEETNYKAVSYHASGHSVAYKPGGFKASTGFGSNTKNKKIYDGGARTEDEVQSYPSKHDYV

human CLDN18.2 [2] = molecular target: T1, human CLDN18.2; experiment: flow cytometry, hybridoma supernatant on CHO stable cells

抗体亲和力 (affinity from FACS titration, EC50-like) (human CLDN18.2 [1]): 0.675 µg/mL
B1: A8抗体 (as tested in Example 6) (antibody, V domains shown)
VH: QVQLQQPGAELVKPGASVKLSCKASGYTFTSYWMHWVRQRPGQGLEWIGMIHPNSGSTNYNGKFKSKATLTVDKSSSTAYMQLSSLTSEDSAVYFCARGGYYGNSLDFWGQGTSLTVSS
VL: DIVMTQSPSSLTVTAREKVTMSCKSSQSLLNSGNQKNYLTWYQQKPGQPPKLLIYWASTRESGVPDRFTGSGSGTDFTLTISSVQAEDLAVYYCQNAYSYPFTFGSGTKLEIK

binding result (human CLDN18.2 [2]): binds
B2: C18-16-1H1-1A8 (antibody, V domains shown)
VH: B1 VH
VL: DIVMTQSPSSLTVTAREKVTMSCKSSQSLLNSGNQKNYLTWYQQKPGQPPKLLIYWASTRESGVPDRFTGSGSGTDFTLTISSVQAEDLAVYYCQNAYSYPFTFGSGTKLEIKR
notes: also called A8抗体; C18-16-1H1-1A8重组抗体
